Target: T1, purified yeast recombinant GIP90 with FLAG tag at N-terminal position and 6 histidine tail at C-terminal position
T1 chain: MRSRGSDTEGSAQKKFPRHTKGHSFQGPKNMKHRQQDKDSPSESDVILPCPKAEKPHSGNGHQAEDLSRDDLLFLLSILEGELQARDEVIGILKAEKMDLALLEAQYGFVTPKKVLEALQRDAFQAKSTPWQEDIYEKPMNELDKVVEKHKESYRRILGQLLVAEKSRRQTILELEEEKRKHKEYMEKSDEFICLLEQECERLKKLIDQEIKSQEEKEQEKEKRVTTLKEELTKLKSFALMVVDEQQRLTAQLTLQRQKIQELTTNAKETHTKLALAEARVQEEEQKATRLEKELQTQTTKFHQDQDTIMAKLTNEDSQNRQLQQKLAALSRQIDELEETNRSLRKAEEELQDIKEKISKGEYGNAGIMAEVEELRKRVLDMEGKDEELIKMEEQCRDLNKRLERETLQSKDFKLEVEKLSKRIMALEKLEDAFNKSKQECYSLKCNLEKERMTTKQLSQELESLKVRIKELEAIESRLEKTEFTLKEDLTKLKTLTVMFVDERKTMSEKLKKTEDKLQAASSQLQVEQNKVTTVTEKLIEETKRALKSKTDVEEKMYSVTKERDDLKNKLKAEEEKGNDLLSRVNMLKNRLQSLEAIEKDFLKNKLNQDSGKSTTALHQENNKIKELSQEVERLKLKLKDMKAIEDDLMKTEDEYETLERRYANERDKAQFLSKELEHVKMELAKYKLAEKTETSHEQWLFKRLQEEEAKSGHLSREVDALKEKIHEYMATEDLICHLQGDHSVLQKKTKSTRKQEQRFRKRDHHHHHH

B1: Goodpasture antigen binding protein (GPBP) (enzyme, UniProt Q9Y5P4 1-624, looked up)
chain: MSDNQSWNSSGSEEDPETESGPPVERCGVLSKWTNYIHGWQDRWVVLKNNALSYYKSEDETEYGCRGSICLSKAVITPHDFDECRFDISVNDSVWYLRAQDPDHRQQWIDAIEQHKTESGYGSESSLRRHGSMVSLVSGASGYSATSTSSFKKGHSLREKLAEMETFRDILCRQVDTLQKYFDACADAVSKDELQRDKVVEDDEDDFPTTRSDGDFLHSTNGNKEKLFPHVTPKGINGIDFKGEAITFKATTAGILATLSHCIELMVKREDSWQKRLDKETEKKRRTEEAYKNAMTELKKKSHFGGPDYEEGPNSLINEEEFFDAVEAALDRQDKIEEQSQSEKVRLHWPTSLPSGDAFSSVGTHRFVQKPYSRSSSMSSIDLVSASDDVHRFSSQVEEMVQNHMTYSLQDVGGDANWQLVVEEGEMKVYRREVEENGIVLDPLKATHAVKGVTGHEVCNYFWNVDVRNDWETTIENFHVVETLADNAIIIYQTHKRVWPASQRDVLYLSVIRKIPALTENDPETWIVCNFSVDHDSAPLNNRCVRAKINVAMICQTLVSPPEGNQEISRDNILCKITYVANVNPGGWAPASVLRAVAKREYPKFLKRFTSYVQEKTAGKPILF
notes: Protein kinase; Fusion parts are not written as pieces
^32P incorporation into GIP90 (in vitro phosphorylation with [γ^32P] ATP, Western blot and autoradiography): resulted in ^32P incorporation into GIP90

Reference: patent publication US20030108554A1 (published 2003)
